The source of these data is PMC9936548, “Repertoire of Computationally Designed Peroxygenases for Enantiodivergent C–H Oxyfunctionalization Reactions” (Journal of the American Chemical Society, 2023).

Substrate in this series: CCc1ccccc1
The experiment in a line: purified protein. It is filed as biochemical, Cyclocybe aegerita.

[1] abbreviates: 2 mM H2O2, 100 mM phosphate pH 7.0, design d2.
Where [2] appears, read: 2 mM H2O2, 100 mM phosphate pH 7.0, design d4.

Broadly, the Km is the substrate concentration at which the rate is half of its maximum. As usually defined, the kcat is the number of substrate molecules converted per active site and unit of time at saturation. In general, kcat/Km refers to the turnover number divided by the Michaelis constant.

B1: PaDa-I (evolved AaeUPO) (Cyclocybe aegerita; A359P/F242L/F354L/G284I/I291V/L110F/T235L/V100A/V118I/V287I) (protein)
chain: EPGLPPGPLENSSAKLVNDEAHPWKPLRPGDIRGPCPGLNTLASHGYLPRNGVATPAQIINAVQEGFNFDNQAAIFATYAAHLVDGNLITDLLSIGRKTRLTGPDPPPPASVGGLNEHGTFEGDASMTRGDAFFGNNHDFNETLFEQLVDYSNRFGGGKYNLTVAGELRFKRIQDSIATNPNFSFVDFRFFLAYGETTLPANLFVDGRRDDGQLDMDAARSFFQFSRMPDDFFRAPSPRSITGIEVVVQAHPMQPGRNVGKINSYTVDPTSSDFSTPCLMYEKFVNITVKSLYPNPTVQLRKALNTNLDFLFQGVPAGCTQVFPYGRD
notes: laboratory-evolved secretion mutant PaDa-I; mature, no tag; evolved signal peptide (F12Y/A14V/R15G/A21D in leader); heme and structural Mg; expressed in Pichia pastoris, purified to homogeneity
B1: under setting [1], the Km stood at 560 ± 200 µM, the kcat turned out to be 570 ± 119 s⁻¹ and the kcat/Km came to 1.02e+06 M⁻¹ s⁻¹.

B2: PaDa-I (evolved AaeUPO) (Cyclocybe aegerita; A120I/F112L/F242L/F354L/G284N/I291V/L110F/V100A/V118I/V287T) (protein)
chain: EPGLPPGPLENSSAKLVNDEAHPWKPLRPGDIRGPCPGLNTLASHGYLPRNGVATPAQIINAVQEGFNLDNQAAIFITYAAHLVDGNLITDLLSIGRKTRLTGPDPPPPASVGGLNEHGTFEGDASMTRGDAFFGNNHDFNETLFEQLVDYSNRFGGGKYNLTVAGELRFKRIQDSIATNPNFSFVDFRFFTAYGETTLPANLFVDGRRDDGQLDMDAARSFFQFSRMPDDFFRAPSPRSNTGTEVVVQAHPMQPGRNVGKINSYTVDPTSSDFSTPCLMYEKFVNITVKSLYPNPTVQLRKALNTNLDFLFQGVAAGCTQVFPYGRD
notes: as for B1
Take B2: under setting [2], the Km was 560 ± 200 µM, the kcat was 570 ± 119 s⁻¹ and the kcat/Km is 1.02e+06 M⁻¹ s⁻¹.
